Assay results taken from publication PMC11461855 (Nature Communications, 2024).

Target: T1, mMED15-FLAG (Flag-tagged mouse Med15) (mouse, UniProt Q924H2 1-789)
T1 sequence: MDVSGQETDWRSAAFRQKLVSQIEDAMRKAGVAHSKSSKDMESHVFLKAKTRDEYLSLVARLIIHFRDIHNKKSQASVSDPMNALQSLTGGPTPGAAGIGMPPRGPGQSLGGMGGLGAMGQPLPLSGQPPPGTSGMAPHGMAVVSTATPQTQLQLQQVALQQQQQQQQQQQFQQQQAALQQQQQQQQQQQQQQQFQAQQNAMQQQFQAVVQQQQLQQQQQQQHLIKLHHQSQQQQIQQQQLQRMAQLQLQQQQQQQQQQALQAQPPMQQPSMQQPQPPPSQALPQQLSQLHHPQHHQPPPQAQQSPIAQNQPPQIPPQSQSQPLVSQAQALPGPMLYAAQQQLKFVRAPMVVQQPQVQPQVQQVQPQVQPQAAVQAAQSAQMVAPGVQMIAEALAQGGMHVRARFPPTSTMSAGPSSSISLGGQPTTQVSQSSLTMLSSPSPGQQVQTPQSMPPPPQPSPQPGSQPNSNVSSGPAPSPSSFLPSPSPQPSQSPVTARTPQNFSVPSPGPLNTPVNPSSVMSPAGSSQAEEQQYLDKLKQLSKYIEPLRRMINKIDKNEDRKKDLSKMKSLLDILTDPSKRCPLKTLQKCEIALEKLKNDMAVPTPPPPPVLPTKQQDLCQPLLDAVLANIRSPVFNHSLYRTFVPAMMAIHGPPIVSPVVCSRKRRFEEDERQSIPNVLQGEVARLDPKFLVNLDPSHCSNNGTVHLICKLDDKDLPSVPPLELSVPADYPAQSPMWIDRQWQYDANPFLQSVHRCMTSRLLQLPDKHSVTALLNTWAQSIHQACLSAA
Experiment: pull-down

- binding result: binds
B1: HA-mNKX6.1 (HA-tagged full-length mouse Nkx6-1) (natural protein)
chain: MLAVGAMEGPRQSAFLLSSPPLAALHSMAEMKTPLYPAAYPPLPTGPPSSSSSSSSSSSPSPPLGSHNPGGLKPPAAGGLSSLGSPPQQLSAATPHGINDILSRPSMPVASGAALPSASPSGSSSSSSSSASATSASAAAAAAAAAAAAAASSPAGLLAGLPRFSSLSPPPPPPGLYFSPSAAAVAAVGRYPKPLAELPGRTPIFWPGVMQSPPWRDARLACTPHQGSILLDKDGKRKHTRPTFSGQQIFALEKTFEQTKYLAGPERARLAYSLGMTESQVKVWFQNRRTKWRKKHAAEMATAKKKQDSETERLKGTSENEEDDDDYNKPLDPNSDDEKITQLLKKHKSSGGSLLLHASEAEGSS
